Consider two molecules from patent US20210277110A1 (Janssen / Centocor, published 2021).

Assay [1] concerns the target T1, Extracellular domain of human PD1 (huPD1-ECD) (human, UniProt Q15116 25-169, biotinylated in the ligand inhibition assay (sites not given)).
T1 construct: Expressed with a hexahistidine tag or as Fc fusion; also called biotinylated PD-1
Briefly: MSD ligand inhibition, competitor coated cynoPDL1-ECD.

In assay [2] the target is T1, Extracellular domain of human PD1 …. Briefly: MSD ligand inhibition, competitor coated huPDL1-ECD.
Procedure: The ligand inhibition assay design was MSD (Mescoscale Discovery) based. A MSD plate was directly coated with ligand (cynoPDL1-ECD, huPDL1-ECD or huPDL2-ECD) and incubated overnight at 4° C. The following day, the coating solution was removed and the plate was blocked. […] Depending on the panel of antibodies to be tested, the antibodies were tested as titrations or at a fixed concentration.
Assay [3] has the same target. Briefly: SPR, human PD-1 affinity. On the technique in general: SPR reads the build-up and loss of mass on a sensor chip optically.
Procedure: Affinity measurements using Surface Plasmon Resonance (SPR) were performed using a ProteOn XPR36 system. A biosensor surface was prepared by coupling a mixture of anti-IgG Fc modified alginate polymer layer surface of a GLC chip using the manufacturer instructions for amine-coupling chemistry. […] The collected data were processed and fitted to a Langmuir 1:1 binding model. The result for each mAb was reported in the format of kₒₙ (On-rate), koff (Off-rate) and KD (equilibrium dissociation constant).
Assay [4] deals with T2, Full length human PD1 (huPD1) on cells (human, UniProt Q15116 25-288).
T2 construct: on T cells of human donors in the MLR and CMV assays (functional); also called PD-1 on Jurkat cells
Briefly: flow cytometry, Jurkat cells.
Procedure: Jurkat cells were stimulated overnight with 20 ng/ml of PHA, harvested, washed, and checked for viability. The cells were then incubated at 6-10° C. for 45-60 minutes with various concentrations of test antibodies, washed and incubated at 6-10° C. for 45-60 minutes with FITC-labeled goat anti-human IgG. The cells were washed and fixed with BD Cytofix, refrigerated overnight and analyzed on a MACSQuant flow cytometer. The percentage of PD-1 positive cells at each antibody concentration was plotted vs log of the antibody concentration and EC₅₀ values were generated in Prism.

The target of assay [5] is T2, Full length human PD1 (huPD1) on cells. In words: cell-based or functional assay.

Changes are numbered by the printed parent chain.

T1 sequence (Q15116 25-169 limits assumed): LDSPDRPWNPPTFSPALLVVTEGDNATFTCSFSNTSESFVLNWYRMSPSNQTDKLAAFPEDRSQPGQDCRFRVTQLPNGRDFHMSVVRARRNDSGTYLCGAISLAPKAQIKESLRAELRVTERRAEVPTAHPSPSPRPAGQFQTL
T2 sequence (Q15116 25-288 limits assumed): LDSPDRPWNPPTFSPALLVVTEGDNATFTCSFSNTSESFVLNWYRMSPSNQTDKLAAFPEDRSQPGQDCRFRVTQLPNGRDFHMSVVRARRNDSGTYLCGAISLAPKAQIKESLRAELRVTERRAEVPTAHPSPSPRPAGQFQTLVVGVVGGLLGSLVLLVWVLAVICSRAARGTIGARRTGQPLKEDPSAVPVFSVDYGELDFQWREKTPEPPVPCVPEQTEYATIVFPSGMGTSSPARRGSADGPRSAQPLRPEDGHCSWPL

B1: PD1B131 (antibody, V domains shown)
VH: EVQLVESGGGLVQPGGSLRLSCAASGFAFSRYDMSWIRLAPGKGLESVAYISGGGANTYYLDNVKGRFTISRDNAKNSLYLQMNSLRAEDTAVYYCASPYLSYFDVWGQGTLVTVSS
VL: EIVMTQSPATLSVSPGERATLSCRASQSLSDYLHWYQQKPGQAPRLLIKSASQSISGIPARFSGSGSGTEFTLTISSLQSEDFAVYYCQNGHSFPYTFGQGTKLEIK
notes: Humanized variant of PD1B28; also called PD1H130/PD1L62
What is called IC50 is the concentration needed to halve the response being measured. In general, Kd refers to a measure of binding affinity in units of concentration. Low values mean higher affinity, high ones lower affinity. Usually koff stands for a measure of how fast the partners let go of each other. Read a low koff as slow dissociation. Usually kon stands for the rate constant with which the complex forms. The low end stands for slower complex formation, the high end for faster complex formation. B1 displayed an IC50 in assay [1] of 0.096 µg/mL. The molecule also gave an IC50 in assay [2] of 0.079 µg/mL. In addition, in assay [3], binding was put at a Kd of 0.127 nM, the koff is 0.000105 s⁻¹ and the on-rate constant (kon) amounted to 827000 M⁻¹ s⁻¹. Further, the “Jurkat cell binding relative to PD1B28” value in assay [4] came out at 100%.

B2: PD1B132 (antibody, IgG2, V domains shown)
VH: B1 VH with I37V, L39Q
VL: B1 VL
notes: Humanized variant of PD1B28; also called PD1H129/PD1L62
Regarding B2, the “CMV EC50, nM (IFN-γ induction)” value in assay [5] was determined as 0.07 nM. Besides, in assay [1], the IC50 is 0.079 µg/mL. The molecule further came in with an IC50 in assay [2] of 0.055 µg/mL. In assay [3], the Kd worked out at 0.096 nM, the koff came to 8.8e-05 s⁻¹ and the kon came to 914000 M⁻¹ s⁻¹. Further, the “Jurkat cell binding relative to PD1B28” value in assay [4] is 100%.
